Measured values from patent publication US20210252159A1, “CONJUGATES OF CARTILAGE-HOMING PEPTIDES” (priority 2018, published 2021).
Like-named read-outs stand apart in the source and are kept apart here. Positions of bridges follow the written chain, without caps; N, C: chain ends. Residues, ends and D or L forms follow the SMILES beside them. *: point of attachment. X1 = CC(CCC(C)C(=O)*)C(=O)OCC(=O)[C@@]1(O)[C@H](C)C[C@H]2[C@@H]3CCC4=CC(=O)C=C[C@]4(C)[C@@]3(F)[C@@H](O)C[C@@]21C

Columns and labels:
in vivo = experiment: in vivo
Excerpt: Dexamethasone alone has low water solubility. […] A secondary objective was to measure free Dex levels in knee joints.
All samples were collected at euthanasia. Free Dex was extracted from plasma samples and quantified by LC/MS. […] To measure the total Dex concentration (free Dex released in vivo+Dex associated with intact peptide-drug conjugate) in plasma of rats treated with Peptide(SEQ ID NO: 105)-DMA-Dex, a separate plasma sample was subjected to forced hydrolysis followed by extraction of free Dex. Dexamethasone extraction was achieved by acetonitrile precipitation from plasma samples. The forced hydrolysis protocol involved addition of 10 U porcine esterase to the plasma and incubation for 22 h at 37° C. Total white blood cell counts, absolute lymphocyte counts, and thymus and spleen weights were measured to assess systemic markers of Dex exposure over the time-course.
In order to quantify the concentration of free Dex in knee joints, knee joints were harvested, the joint capsule was opened, and the knee joints were then shaken in ethyl acetate for 12 h at 4° C. The extract was centrifuged and the supernatant was dried under nitrogen in a 96 well plate. The samples were then reconstituted and analyzed by LC/MS using the same protocol developed for quantifying free Dex in plasma.
An indirect estimate of intact peptide-drug conjugate concentration at each time-point can be made by subtracting the free Dex concentration (from direct extraction) from the total Dex concentration (from forced hydrolysis). […] Systemic exposure to Dex was assessed by multiple parameters: total white blood cell (WBC) count; absolute lymphocyte count; thymus weight; and spleen weight (FIG. 15).

[1] = Hydrolysis assay of peptide-drug conjugates in rat plasma (free drug by LC/MS); format: in vitro ADME; conditions: 37° C.
CIA rats = format: in vivo
Protocol: Ankle diameter measurements were recorded daily starting on induction day 9 and continuing for the duration of the study. […] Each treatment was administered on the day of enrollment (study day 0) and repeated daily for 7 days (study day 6). Rats were euthanized 3 h after the final dose and blood and organs were collected for testing.

[2] = any time-point to 24 h, single IV dose 0.2 mg/kg
[3] = 0.05 mg/kg daily for 7 days, study day 6

CC[C@H](C)[C@@H]1NC(=O)[C@@H]2CSSC[C@H](NC(=O)[C@H](CCCNC(=N)N)NC(=O)[C@@H](NC(=O)[C@H](CC(N)=O)NC(=O)[C@@H](NC(=O)[C@@H]3CCCN3C(=O)[C@@H](NC(=O)CNC(=O)[C@H](CO)NC(=O)CNC(=O)C(C)CCC(C)C(=O)OCC(=O)[C@@]3(O)[C@H](C)C[C@H]4[C@@H]5CCC6=CC(=O)C=C[C@]6(C)[C@@]5(F)[C@@H](O)C[C@@]43C)C(C)C)[C@@H](C)CC)C(C)C)C(=O)N[C@@H](CCCNC(=N)N)C(=O)NCC(=O)N[C@@H](CO)C(=O)N[C@@H](CCCNC(=N)N)C(=O)N[C@@H](CC(=O)O)C(=O)N[C@H]3CSSC[C@H](NC(=O)[C@H](CCCNC(=N)N)NC(=O)[C@H](CO)NC(=O)[C@H](CC(N)=O)NC1=O)C(=O)N[C@@H](Cc1c[nH]cn1)C(=O)N[C@H](C(=O)N[C@H](C(=O)N1CCC[C@H]1C(=O)O)[C@@H](C)O)CSSC[C@H](NC(=O)[C@@H]1CCCN1C(=O)[C@H](CC(=O)O)NC(=O)[C@H](CC(C)C)NC3=O)C(=O)N[C@@H](CCCNC(=N)N)C(=O)N[C@@H](CCCNC(=N)N)C(=O)N[C@@H](C)C(=O)NCC(=O)N[C@@H](CCSC)C(=O)N[C@@H](CCCNC(=N)N)C(=O)N[C@@H](Cc1ccccc1)C(=O)NCC(=O)N[C@@H](CCCNC(=N)N)C(=O)N2 (stereo partly drawn) [Compound 27, peptide(SEQ ID NO: 105)-[dimethyladipic acid]-Dex] (X1-GSGVPINVRCRGSRDCLDPCRRAGMRFGRCINSRCHCTP-OH; disulfide 10-30, 16-35, 20-37 (inferred); C-terminus assumed)
WBC and lymphocyte cell counts as compared to DexSP (in vivo; 2 h after single IV dose 0.2 mg/kg): higher
lymphocyte counts as compared to DexSP (in vivo; 12 h after single IV dose 0.2 mg/kg): lower
Thymus weight, difference between DexSP and conjugate (in vivo; [2]): not significantly different
spleen weight, difference between DexSP and conjugate (in vivo; [2]): not significantly different
half-life (in vivo; female, Lewis, rat, in vivo, iv, 0.2 mg/kg): ~1.5 h
detectability of intact peptide-drug conjugate in plasma (in vivo; plasma, total Dex minus free Dex, single IV dose 0.2 mg/kg): not detectable after 6 h
half-life at 0.25 mg/mL ([1]; Rat Plasma, release of free Dex, time points to 32 hr, read-out: Half-life (hours) as measured in the hydrolysis experiments (converted)): 9.9 h
half-life at 0.25 mg/mL ([1]; in rat plasma, free Dex, read-out: Hydrolysis half-life (converted)): 9.9 h
plasma lymphocyte counts as compared to DexSP (CIA rats; 0.05 mg/kg): significantly higher
spleen weight as compared to DexSP (CIA rats; 0.05 mg/kg): significantly higher
plasma lymphocyte counts as compared to vehicle (CIA rats; [3]): significantly reduced
spleen weight as compared to vehicle (CIA rats; [3]): significantly reduced
thymus weight as compared to vehicle (CIA rats; [3]): significantly reduced
ankle inflammation (CIA rats; highest dose of 0.05 mg/kg daily for 7 days): effective at reducing ankle inflammation
ankle inflammation (CIA rats; lower doses (0.001, 0.005, 0.01 mg/kg) daily for 7 days): indistinguishable from vehicle
